Measurements reported in patent US20050175719A1, “Procyanidins for treatment and prevention of enzymatic irritation to the skin” (priority 2004, published 2005).

B1: STI: pure serine protease inhibitor (soybean trypsin inhibitor) from Sigma, used as positive control (protein, UniProt P01070 25-205, looked up)
Trypsin inhibitor A: DFVLDNEGNPLENGGTYYILSDITAFGGIRAAPTGNERCPLTVVQSRNELDKGIGTIISSPYRIRFIAEGHPLSLKFDSFAVIMLCVGIPTEWSVVEDLPEGPAVKIGENKDAMDGWFRLERVSDDEFNNYKLVFCPQQAEDDKCGDIGISIDHDDGTRRLVVSKNKPLVVQFQKLDKESL
B2: Lactoferrin: commonly used antioxidant (protein, UniProt P02788 20-710, looked up)
Lactotransferrin: GRRRSVQWCAVSQPEATKCFQWQRNMRKVRGPPVSCIKRDSPIQCIQAIAENRADAVTLDGGFIYEAGLAPYKLRPVAAEVYGTERQPRTHYYAVAVVKKGGSFQLNELQGLKSCHTGLRRTAGWNVPIGTLRPFLNWTGPPEPIEAAVARFFSASCVPGADKGQFPNLCRLCAGTGENKCAFSSQEPYFSYSGAFKCLRDGAGDVAFIRESTVFEDLSDEAERDEYELLCPDNTRKPVDKFKDCHLARVPSHAVVARSVNGKEDAIWNLLRQAQEKFGKDKSPKFQLFGSPSGQKDLLFKDSAIGFSRVPPRIDSGLYLGSGYFTAIQNLRKSEEEVAARRARVVWCAVGEQELRKCNQWSGLSEGSVTCSSASTTEDCIALVLKGEADAMSLDGGYVYTAGKCGLVPVLAENYKSQQSSDPDPNCVDRPVEGYLAVAVVRRSDTSLTWNSVKGKKSCHTAVDRTAGWNIPMGLLFNQTGSCKFDEYFSQSCAPGSDPRSNLCALCIGDEQGENKCVPNSNERYYGYTGAFRCLAENAGDVAFVKDVTVLQNTDGNNNEAWAKDLKLADFALLCLDGKRKPVTEARSCHLAMAPNHAVVSRMDKVERLKQVLLHQQAKFGRNGSDCPDKFCLFQSETKNLLFNDNTECLARLHGKTTYEKYLGPQYVAGITNLKKCSTSPLLEACEFLRK

System: trypsin
Test: Inhibition of trypsin-induced cleavage of fluorescent BODIPY FL casein (EnzChek protease assay kit)
Assay type: biochemical
Excerpt: The procedure of Example 1 was independently repeated using the procyanidin-containing grape seed extract and STI, respectively, at 0.1% concentration. In addition, the procedure of Example 1 was repeated on the five individual monomer units typically found in OPC, at up to three different concentration levels.

Row | Molecule | % trypsin inhibition (Table 4, concentration (w/w) 0.1 %) [%] | % trypsin inhibition (concentration 0.0005 % (w/w)) [%] | % trypsin inhibition (concentration 0.001 % (w/w)) [%] | % trypsin inhibition (concentration 0.0025 % (w/w)) [%] | % trypsin inhibition (concentration 0.005 % (w/w)) [%] | % trypsin inhibition (concentration 0.01 % (w/w)) [%] | % trypsin inhibition (concentration 0.025 % (w/w)) [%] | % trypsin inhibition (concentration 0.05 % (w/w)) [%] | % trypsin inhibition (concentration 0.075 % (w/w)) [%] | trypsin inhibition activity (in words) (at concentrations up to 0.1%) | % trypsin inhibition (concentration 0.1 % (w/w)) [%]
1 | B1 | 89 | 17 | 30 | 44 | 55 | 74 | 85 | 87 | 63 | – | –
2 | B2 | – | – | −2 | – | – | −4 | – | – | – | no trypsin inhibition activity | 0
